Test [1] has as its target VEGFR1 domain 2 (Homo sapiens) (UniProt P17948). Conditions: cited from earlier work.
A further test has as its system VEGFR1 versus VEGFR2. The following applies: cited from earlier work. From the text: Tumor angiogenesis is regulated by the binding of VEGF to receptors (VEGFRs). The major mediator of tumor angiogenesis is VEGFA, more commonly referred to as VEGF. […] However, the role of the VEGFR1 in VEGF-mediated angiogenesis remains a mystery.
The next test addresses VEGFR1 D2. Conditions: quantity not named as Kd in the text; cited from earlier work. How it is done:
(§1) Subsequently, to verify the ability of VGB3 to form a complex with VEGFR1D2, microscale thermophoresis (MST) measurements were performed using a VEGFR1D2-labeled with VGB3 at increasing concentrations. As well as measuring the Kd between VGB3 and its receptor this functional test will also confirm whether the refolded protein VEGFR1D2 assumes the correct conformation. Fluorescently labeled VEGFR1D2 purified and titrated as 1:1 with VGB3.

For test [2], the target named is entire extracellular portion of VEGFR1. The following applies: VEGFA to entire extracellular portion of VEGFR1; no reference given; cited from earlier work. The method, then: as §1
Test [3] addresses T1, His-tagged VEGFR1D2 (second extracellular domain of Vascular Endothelial Growth Factor Receptor 1) (UniProt P17948 129-226, fluorescently labeled).
T1 construct: VEGFR1 (Flt-1), second extracellular domain; The PDB entries are the cited complexes of VEGFR1D2 used for the design, not necessarily the limits of this construct
Description: MST; fixed concentration of fluorescently labeled VEGFR1D2; VGB3 titrated at increasing concentrations, initial concentration of ligand 0.25 mM. The following applies: both partners purified.

For test [4], the target named is VEGFR-1 (as used in the ELISA-based displacement assay) (UniProt P17948).
For test [5] the target is unchanged. Description: ELISA; VEGFR-1-binding ELISA-based displacement assay; displacement of btVEGF165 (100 pM) by VGB3. On the technique in general: ELISA stands for enzyme-linked immunosorbent assay.

The source of these data is PMC7272640, “Molecular docking, synthesis and biological evaluation of Vascular Endothelial Growth Factor (VEGF) B based peptide as antiangiogenic agent targeting the second domain of the Vascular Endothelial Growth Factor Receptor 1 (VEGFR1D2) for anticancer application” (Signal Transduction and Targeted Therapy, 2020).

Bridges are numbered along the chain shown (N, C = ends).

The term Kd denotes the constant that tells how readily two partners part at equilibrium. What is called stoichiometry N is a count of units in the complex or per binding partner.

VEGFR-1 (as used in the ELISA-based displacement assay), sequence (P17948 27-1338): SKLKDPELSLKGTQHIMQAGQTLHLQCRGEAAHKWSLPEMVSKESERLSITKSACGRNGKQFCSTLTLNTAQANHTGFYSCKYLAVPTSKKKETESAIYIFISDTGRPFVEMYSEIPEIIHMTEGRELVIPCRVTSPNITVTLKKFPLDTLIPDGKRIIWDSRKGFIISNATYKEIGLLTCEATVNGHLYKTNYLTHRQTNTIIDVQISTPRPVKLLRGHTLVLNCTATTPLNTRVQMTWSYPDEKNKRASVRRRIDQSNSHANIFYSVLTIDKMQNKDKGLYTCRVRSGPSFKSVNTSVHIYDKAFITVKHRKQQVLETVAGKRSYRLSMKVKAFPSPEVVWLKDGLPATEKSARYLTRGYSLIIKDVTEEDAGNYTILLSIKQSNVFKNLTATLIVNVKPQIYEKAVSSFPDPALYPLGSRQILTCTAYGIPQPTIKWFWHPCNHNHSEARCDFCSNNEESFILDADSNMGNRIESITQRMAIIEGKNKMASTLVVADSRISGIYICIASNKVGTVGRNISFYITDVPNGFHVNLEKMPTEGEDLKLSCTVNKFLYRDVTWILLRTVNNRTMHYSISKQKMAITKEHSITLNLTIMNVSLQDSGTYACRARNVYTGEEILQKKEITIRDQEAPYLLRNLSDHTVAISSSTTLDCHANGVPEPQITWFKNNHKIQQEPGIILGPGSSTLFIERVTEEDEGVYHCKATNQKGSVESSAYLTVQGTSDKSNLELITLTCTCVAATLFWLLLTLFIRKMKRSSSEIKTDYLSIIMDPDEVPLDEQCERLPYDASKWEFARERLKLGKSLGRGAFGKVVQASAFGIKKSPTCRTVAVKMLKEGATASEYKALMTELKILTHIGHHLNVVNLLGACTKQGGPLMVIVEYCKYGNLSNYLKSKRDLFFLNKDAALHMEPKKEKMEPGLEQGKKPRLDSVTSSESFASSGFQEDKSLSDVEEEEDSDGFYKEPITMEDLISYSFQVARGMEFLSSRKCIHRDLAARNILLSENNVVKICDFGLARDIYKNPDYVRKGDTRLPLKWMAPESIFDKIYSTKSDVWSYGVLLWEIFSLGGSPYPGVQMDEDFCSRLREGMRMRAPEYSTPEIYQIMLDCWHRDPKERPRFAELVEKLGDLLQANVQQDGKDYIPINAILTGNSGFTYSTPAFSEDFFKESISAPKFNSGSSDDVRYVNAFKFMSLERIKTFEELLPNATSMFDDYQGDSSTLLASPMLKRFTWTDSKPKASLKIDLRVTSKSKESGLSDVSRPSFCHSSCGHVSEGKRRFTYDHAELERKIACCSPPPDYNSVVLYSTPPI
T1 sequence (P17948 129-226): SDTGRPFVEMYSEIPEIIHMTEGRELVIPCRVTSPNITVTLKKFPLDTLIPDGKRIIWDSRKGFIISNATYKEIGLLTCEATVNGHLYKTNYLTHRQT
VEGFR1 domain 2 (Homo sapiens), sequence (P17948 151-214): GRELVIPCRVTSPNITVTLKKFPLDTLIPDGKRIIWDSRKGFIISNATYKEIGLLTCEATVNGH

Take VEGFA (from UniProt P15692): in test [1], the Kd is 50 nM.
Consider VEGF, for which the “affinity of VEGFR1 for VEGF, times higher than VEGFR2” value with VEGFR1 versus VEGFR2 was 10 times. On VEGFR1 D2, the “tight association between VEGFR1 D2 and VEGF” value is listed as 113 pM. Also, the Kd in test [2] is approximately 50 nM.

B1: VGB3 (mimetic decapeptide based on VEGFB) (peptide)
peptide: H-ECRPPDDGLC-OH
modifications: disulfide 2-10 (inferred)
notes: VEGFB, strand beta7, printed as 102-ECRP-105; VEGFB, loop connecting beta3 to beta4, printed as 62-PDDGL-66; Cys residue added to the C terminus to make the disulfide bond; also called VGB3 peptide; source: synthetic peptide (solid-phase peptide synthesis)
Consider B1, for which, in test [3], the dissociation constant (Kd) amounted to 1960 ± 690 nM and the “stoichiometry N” value was found to be 1. The same molecule returned an inhibition of VEGF165 (0.75 pM)-stimulated proliferation of 4T1 mammary carcinoma cells (MTT assay), IC50 in test [4] of 30 nM. Also, the percent displacement of btVEGF165 (100 pM) at 100 μM VGB3 in test [5] turned out to be 63%.
